Laboratory results reported in the DeepSol protein solubility set.

assay: soluble on expression in E. coli; label from the status in PepcDB or PDB records

| Sequence | soluble on expression in E. coli |
| --- | --- |
| MMMLPEACIANILAFTSPADAFSSSEVSSVFRLAGDSDFVWEKFLPSDYKSLISQSTDHHWNISSKKEIYRCLCDSLLIDNARKLFKINKFSGKISYVLSARDISITHSDHASYWSWSNVSDSRFSESAELIITDRLEIEGKIQTRVLSANTRYGAYLIVKVTKGAYGLDLVPAETSIKSKNGQISKSATYLCCLDEKKQQMKRLFYGNREERMAMTVEAVGGDGKRREPKCRDDGWMEIELGEFETREGEDDEVNMTLTEVKGYQLKGGILIDGIEVRPKT | soluble |
| MMNEYRFHLEKYRLGNRYTCPNCERKRCFTRYIDDEGEVSFPDNVGKCDHEHSCGYHYTPKDYFREHPDFLSKDKLPYPTRGNTQPKVVEKPISYIANAIMERSLSHYGINPLYQYLSKVFGEQETERLMKMYHVGTSYKWGGSTIYWQVDKDDKVRTGKVMLYNPKDGHRVKEPRSYVGWAHAFLHLPDFNLCQCFFGEHLLAQHPTMSVAIVESEKTAIIASHFIPNFIWLATGGMHGCLNQIAVKVLGGRDIILFPDLGATDKWKSKIPLLQSVCKRVVISNILEDNATDEQKTKGLDIADFLLMAETPQMALQRLIKQHPPLKHLIDCLGLVLVEES | not soluble |
| MMNTSDNHALGDFLRARRQRLDPATFGFPAGRRRTPGLRREEVAQLASISPTWYTWLEQGRGGAPSREVLERIARGLRLTTPEREHLFILAFGHPPQTRLTVTDDMTPRLQRVLDAFTIPAIIRTASWDVIAWNAPAARVLTDYSQLPLAERNVLRRLFTRPEARCTLEDWQRVGQLIVNAFRADVTRMGATKETDQLIAELSQQSVEFARFWQSHDVAGHGEGYKRINHPEMGPLDLEFTSFAVEGRPDLSLLVFNPATTESQRKIHGLLQGAGSAPEES | soluble |
| MMPGYQSADEFADKEKGWTGVHQWEKEMAKADEKYGPIFAKFAAMPIEEVAKDPQAVKMGGRLFASNCSICHGSDAKGAYGFPNLTDADWRWGGEPETIKTTIMAGRHAAMPAWGEVIGEEGVKNVAAFVLTQMDGRKLPEGAKADIEAGKQVFATTCVACHGPEGKGTPAMGAPDLTHPGAFIYGSSFAQLQQTIRYGRQGVMPAQQEHLGNDKVHLLAAYVYSLSHGE | not soluble |
| MMPTSTCGYPGMAEQSTVLYTAVGYMVGFVSLFNHTHSQDNFFHRGCYYGCDDDNMRFAFFSKAALEFLLRSNKKPDIIHCHDWQTGLIPIMLYEIYKYHGMEYQRVCYTIHNFKHQGMGGVGTLQATALNEASYYFQYNKLRDNFNPFALNLMKGGIIYSNAVTTVSPHHAVEAQTSE | not soluble |
| MMRGGMGNMNNMMKQMQKMQKDMAKAQEELGEKTVEGTAGGGMITVIANGHKQILEVKIKEEVVDPEDIEMLQDLVLAATNDALKKADELSNSTMGKFTKGLNLPGGMF | not soluble |
| MMRPDAKVEKVYLYPKPVDFRKSIDGLAALVELDIKVAVFDPVLFVFLNRHRNRVKILYWERNGFCLWLKRLESERFKTSPDETDEAIVLTVQELNWLLDGFDLWRNRPHKVLTPRFVA | not soluble |
| MMTDRTERRRRLTHAACTPSANNQRTTRLPPHPGFFSWSNPACDDGLFLYRTTVSRGVDTQRRRRSHPGFFSCRYHPSTVSLARRHRGPGKRISLRTEISKDADPISTVTETRWFLLNFQCIEPPLEHHHHHH | soluble |
| MNALIVPQWPLPKGVAACSSTRIGGVSLSPYDSLNLGAHCGDNPEHVEENRKRLFAAGNLPSKPVWLEQVHGKNVLRLTGEPYASKRADASYSNTPGTVCAVMTADCLPVLFCNREGTEVAAAHAGWRGLCEGVLEETVTCFADKPENIIAWLGPAIGPAAFEVGPEVRDAFLAKDAQADSAFLPHGEKFLADIYQLARQRLANTGVEHVYGGDRCTFSESETFFSYRRDKTTGRMASFIWLI | soluble |
| MNALPSSAEFSRAVGGDAVSREAVIRIEHLSKTFSDAAGPVLDDVSLTIRRGEIHGIIGRSGAGKSTLVRCINLLERPSAGRVIVSGREITSLRGRALRNARRDIGMIFQHFNVLSSHTVAGNVALPFKVAGLPRAEIARRIPPLLELVGLAHKADAYPSELSGGQKQRVGIARALALDPSVLLCDEATSALDPETTDQILALLRDINRKLGLTIVLITHEMHVVRDIATRVAVLDHGRVVEEGATFDVLAFPKSAVARSFLSGLVAHELPPPVAAQLLPAAVPGSDPVLRIVFTGTAAHDPIVADLVSVFGIQPNILHGRIDYVGDRPLGVLTLVAGGAGEKLPAVLSHLSSLGLVVEVIGHAVRSAVARRHSAARLEHHHHHH | not soluble |
| MNCIIAQSGGPTSVINASVYGLVKANKKLNLYENVYGGLNGIEGILNKKIINLSDLDELQLERFKNSPASGLGSCRYKLKPLSESEDEYLKLLDILNSLNIKAFFYVGGNDSMDTTAKLNAFAKAKNIDIKFFGIPKTIDNDLMHTDHTPGFGSAAKFISTAVLETYLDSKVYTNNGIFIIETMGRDTGWLAASGALATINGNKCADLVYLPERAFSVQSFLTDVARIFKEKKHVYIVASEGLKDENGKFLTETAPNDDSFGHAQLGGVGAYLKNLIIQASITHRVKSLELNTLQRCSMHASSKIDVNEAVMVGQAALEASINSEGGYMVAIRRDSSFPYKSSTFLIEADKIANNIKYFPSEWINEEGNNITEEGLLYLKPLISDFEDRDSLPLYHSFVLLEHHHHHH | not soluble |
| MNDEIISNLHMLSAVHRSLPRDARKDYLSRVRGKVEHLYKAIQGNKKPEINFEVSLEEAKLADKYLKDAKKVRIGNTMSDRDEYLGLLEIADNDERKCVFIHVSIGGIEEGCIVIQLFNDIVPRTAQNFESWCTGEKRGKYGEPLHLKECEIKMILPGSVIGFGDFEENCEYFDDEKSKENHCKNVLSMNIDKSENSSAPLFNMELSDGVDRAGKAIVFGKVVMGNRVIEKVLLAGSRDGIPEQTVKISDCGEMFRGGHSHF | not soluble |
| MNDETPRCPYNSLYKPLNLIKSKPDGCFKHNGQCTYGKNLVESVDDGNSRTPYNSIYEPLSLNKPKPDGRSSNGKKPVDNEYVNLPVLSEEQKLADKLAAKLRKLEVKEPKSKKRGSKERKKKKSEPVESTYESLATIEGSTNYSGPVTTESLESNVKFHHASQTAYIGVYSSADAEAQVKNRGEFALYHLFEVGNGIDHLTATLPLMLVYYTTTKKHRHYPVRESGGKGMVQYSVDCGYPIVRKHYSLNQLVQYYKSFGSIQMKQEDTCSEEFSWWLE | not soluble |
| MNDRSSRRRTMKDDETFEISIPFDEAPHLDPQIFYSLSPSRRNFEEPPEAASSALALMNSVKTQLHMALERNSWLQKRIEDLEEERDFLRCQLDKFISSARMEAEDHCRMKPGPRRMEGDSRGGAGGEASDPESAASSLSGASEEGSASERRRQKQKGGASRRRFGKPKARERQRVKDADGVLCRYKKILGTFQKLKSMSRAFEHHRVDRNTVALTTPIAELLIVAPEKLAEVGEFDPSKERLLEYSRRCFLALDDETLKKVQALKKSKLLLPITYRFKR | soluble |
| MNDRYTNVKIGLEIHVQLSNAGSKLFCGCDSEYRGYKPNTNVCPVCLGLPGALPVPSRRPIVLAIAASMALGCRVPGTVVFTRKHYFYPDLPKNYQITQFEKAGGAPVCMGGVLEYLNTDSWRWERARIRRINLEEDPGKTYYEGSILTSRYALVDYNRSGVPLLEIVTEPDIPSPRHARMLIDYLLLTLEYIGATNPRLEGVFRVDANISIEGGERVEVKNIGSTQDVEKALKFEISRQRLIVERGGKVERETRHWDAERGMTKPLRLKEEEADYLYFPDPDLPPVEITEDMLAEAEKLASKTPGTIYREIESMGVRREIAWSITSTLPAARLFLEAVKLGADPRIAARLVGVDLKGELKEMGKDLYSPNNWPPPQSIAILSNLVARGDYTYDSIKGLVVPKLAANPGSDVKSLLPEKVKDIERLVEEVLNREKRAVQDYLAGKKKALNYLVGQVMRAAKGRALDPRQAREILLRRLSTVKEEDR | soluble |
| MNDVSKASLPKAIFLMGPTASGKTALAIELRKVLPVELISVDSALIYRGMDIGTAKPNADELKAAPHRLLDIRDPSQAYSAADFRRDALAQMAEITAAGRIPLLVGGTMLYFKALLEGLSPLPSADPEVRSRIEQQAAELGWEALHQQLQEIDPVAAARIHPNDPQRLSRALEVFFISGKTLTELTQTSGDALPYQVHQFAIAPASRELLHQRIELRFHQMLASGFEAEVRALFARGDLHTDLPSIRCVGYRQMWSYIEGEISYDEMVYRGVCATRQLAKRQMTWLRGWEGVRWLDSENPDRARKEVLQVVGAIADMAGDPLEHHHHHH | not soluble |
| MNDYAAMPSEDREVGALSLPPHSMEAEQSVLGGLMLENPAWDRIADVVSGEDFYRHEHRLIFRSIAKLINESRPADVITVQEDLQRNEELEAAGGFEYLITLAQNTPSAANIRRYAEIVRERSIMRQLAEVGTEIARSAYNPQGRDAGQLLDEAENKVFQIAESTAKSKQGFLEMPDLLKEVVQRIDMLYSRDNPDEVTGVPTGFIDLDKKTSGLQPGDLIIVAGRPSMGKTAFSINIAEHVAVEGRLPVAVFSMEMGGAQLVMRMLGSVGRLDQSVLKTGRLEDEHWGRLNEAVVKLSDAPVYIDETPGLTALELRARARRLARQFNNKLGLIVIDYLQLMAGSGRSDNRASELGEISRSLKALAKELQVPIIALSQLSRTVESRTDKRPMMSDLRESGAIEQDADLIMFMYRDEYYNQDSPMKGLAECIIGKHRNGPVGKIFLTWTGQFTKFDNAAYIPEEAKIED | not soluble |
| MNEKNRQLPAFTPRNRRTHPISAERKQLGVDDIVDHCMIYVDGRAIQGWFDYGSGLKRVKDFIASGHKAFMWLSLEEPSEQHMMQVADDLHIHELIVEDAVTAHQRPKVERYDDQIFMVVRSVFYRDHETVDDANEIIKTGEVQMLIGEHFIITIRHRTPMPDLTMRLDDPQEISSYGPMIIAWAWADYLVDGYLRIVNILAEEVDELEEEVFTPGSSFNIEHIYMIKREILEMRHAIDPLAPALRMLVTQHKDMIAKQLRSYLRDVLDHEMVAKDYVANFDERLSSLIDAGVAKISLQQNSDMRAIS | not soluble |
| MNELDGIKQFTTVVADSGDIESIRHYHPQDATTNPSLLLKAAGLSQYEHLIDDAIAWGKKNGKTQEQQVVAACDKLAVNFGAEILKIVPGRVSTEVDARLSFDKEKSIEKARHLVDLYQQQGVEKSRILIKLASTWEGIRAAEELEKEGINCNLTLLFSFAQARACAEAGVFLISPFVGRIYDWYQARKPMDPYVVEEDPGVKSVRNIYDYYKQHHYETIVMGASFRRTEQILALTGCDRLTIAPNLLKELQEKVSPVVRKLIPPSQTFPRPAPMSEAEFRWEHNQDAMAVEKLSEGIRLFAVDQRKLEDLLAAKL | soluble |
| MNEQPNNENITQSASRDLQIIEDDAFSYEGYQVVRGEFFAHTYEPSFTFNANKVSVNTACIKKLPQTDFVQILVNPDEKKLAVRPCQEDEKDSFRWCSATKKRSPRQITCRIFFAKVISLMEWNPSYRYKLLGKLIRSDNELLFVFDLTTPEIYVRAEKEDGKIKTSRTPTYPAEWQNQFGVPVEEHQSNLQINMFDGYAVFGISENTQPSEEAQNTSVPPKEETHYEQSTLFPADPMHLEHHHHHH | soluble |
| MNETTNEQEVLLLRRKLDLLLRTGKLLMESAADTNRIERNMKRVAAYLGIPEEKLHIDIRWTMLMVNVSDEKHSFSKFQKCEKHGINMEAISKISKLSWRAIEQDYSLDKYEEELEKIARQERNYTPYVVAICTGFACGGFCK | not soluble |
| MNFADIFSKIRRQQPSVKEAPNHWVKCQSCHALMYYKEIESCFNVCPKCNYHMRISADERIKLLSDEGSFIEYDANLEAIDPLKFVDSKSYKKRLSEGESKTGRKSSVISGECEINGLKTQLVVFDFSFMGGSLGSVEGEKIVRAIQRAITSKTSLVIVSASGGARMQESTYSLMQMSKTSAALKLLSKEKLPYISILTDPTMGGVSASFAWLGDLIIAEPEALVGFAGARVIKQTIGADLPEGFQKAEFLLEHGLIDAIVERGEQKQYLSDVLKFFSGKLEHHHHHH | not soluble |
